Among the data in article PMC7891180, “Exploring the Role of a Cytokinin-Activating Enzyme LONELY GUY in Unicellular Microalga Chlorella variabilis” (Frontiers in Plant Science, 2021) are Km values, retold here.

Substrate in data set [1]: C/C(=C\CNc1ncnc2c1ncn2[C@@H]1O[C@H](COP(=O)(O)O)[C@@H](O)[C@H]1O)CO
The data set is described as follows: purified protein. To be noted: 50 mM Tris, 1 mM MgCl2, 1 mM DTT, pH 7, 30 °C. The data set is classed as biochemical, Chlorella variabilis.

Substrate in data set [2]: CC(C)=CCNc1ncnc2c1ncn2[C@@H]1O[C@H](COP(=O)(O)O)[C@@H](O)[C@H]1O
The data set is described as follows: purified protein. The data set is classed as biochemical, Chlorella variabilis. The settings on record: 50 mM Tris, 1 mM MgCl2, 1 mM DTT, pH 7, 30 °C.

B1: CvarLOG1 (Chlorella variabilis) (protein)
chain: MADSQPASFRKIAVFCGASSGSNPLYIEAARLLGAEMARRGIGLVYGGGNVGLMGAVAEAVGSRLGPDQVIGVIPAALEPREISGTTVGEIRVVGSMHERKAMMFEEADAFIMIPGGYGTLDETLEITTWQQLGFHTKPVGLLNINGFFNKLLAFLDHATQEGFIRPSSRAILVSGDTPGELIDTLAAYQAPPSLLRLASEGKLGVHERG
notes: native protein 211 residues
Regarding B1, the Michaelis constant (Km) in the data set “purified protein [1]” worked out at 133.5 µM; in the data set “purified protein [2]” it was 54.99 µM.

A word on the Km: it is the concentration of substrate that gives half-maximal velocity.
